Data reported in patent publication US20220356229A1.

Columns and labels:
[1] = target: SARS-CoV-2 full length Spike protein, lineage B.1.1.7 (SARS-CoV-2)
[2] = target: SARS-CoV-2 full length Spike protein, lineage B.1.351 (SARS-CoV-2)

B1: antibody 851 (antibody, V domains shown)
VH: QITLKESGPTLVKPTQTLTLTCTFSGFSLSTNGVGMGWIRQPPGKALEWLALIYWDDDQFYSPSLKSRLTITRDTSKNQVVLTMTNMDPVDTATYYCAQAFYESFGFYSWGQGTLVTVSS
VL: NFMLTQPHSVSESPGKTVIISCTRSIGSIASNYVQWYQQRPGSAPTIVVFEDNERPSGVPDRFSGSIDRSSNSASLTISGLKTEDEADYYCQSYDGSSELVFGGGTKLTVLG
Work on B1 yielded a bead assay binding signal [1] of 545 and a bead assay binding signal [2] of 681.

B2: antibody 1037 (antibody, V domains shown)
VH: QITLKESGPTLVKPTQTLTLTCTFSGFSLSTSGVGVGWIRQPPGKALEWLALIYWDDDKRYSPSLKSRLTITKDTSKNQVVLTMTNMDPVDTATYYCAHHTITRINDYWGQGTLVTVSS
VL: QSALTQPASVSGSPGQSITISCTATSSDVGAYNYVSWYQQHPGKAPKLMIYDVSKRPSGVSNRFSGSKSGNTASLTISGLQAEDEADYYCSSYTSSSTVFGGGTKLTVLG
For B2, the bead assay binding signal [1] was 749 and the bead assay binding signal [2] was 985.

B3: antibody 1404 (antibody, V domains shown)
VH: QITLKESGPTLVKPTQTLTLTCTFSGFSLSISGVGVGWLRQPPGKALEWLALIYWDDDKRYSPSLKSRLTISKDTSKNQVVLKMTNIDPVDTATYYCAHHSISTIFDHWGQGTLVTVSS
VL: QSALTQPASVSGSPGQSITISCTATSSDVGDYNYVSWYQQHPGKAPKLMIFEVSDRPSGISNRFSGSKSGNTASLTISGLQAEDEADYYCSSYTTSSAVFGGGTKLTVLG
For B3, the bead assay binding signal [1] was 719 and the bead assay binding signal [2] was 941.

B4: antibody 1538 (antibody, V domains shown)
VH: EVQLLESGGGLVQPGGSLRLSCAASGFTFSSYAMSWVRQAPGKGLEWVSGISDSGGSTYYADYVKGRFTISRDNSKDTLYLQMNSLRAEDTAVYYCAKDRGNEYALTHYYYYAMDVWGQGTTVTVSS
VL: DIQMTQSPSSLSASVGDRVTITCRASQSISSYLNWYQQKPGKAPKLLIYAAYSLQSGVPSRFSGGGSGTDFTLTISSLQPEDFATYFCQQSYSTPITFGQGTRLEIKR
B4 gave a bead assay binding signal [1] of 706 and a bead assay binding signal [2] of 928.

B5: antibody 1444 (antibody, V domains shown)
VH: QVQLVQSGAEVKKPGASVKVSCKASGYTFTAYYMHWVRQAPGQGLEWMGWINPNSDDTNYAQKFQGRVTMTRDTSISTAYMELSRLRSDDTAVYYCAREEGVFTIGDRYFDLWGRGTLVSVSS
VL: QTVVTQEPSFSVSPGGTVTLTCGLSSGSVSTSYYPSWYQQTPGQAPRTLIYNTNTRSSGVPDRFSGSILGNKAALTITGAQADDESDYYCVLYMGSGIWVFGGGTKLTVLG
Binder B5 has a bead assay binding signal [1] of 626 and a bead assay binding signal [2] of 802.

B6: antibody 923 (antibody, V domains shown)
VH: EVQLVESGGGVVRPGGSLRLSCAASGFIFDDYDMTWVRQAPGKGLEWVSGISWNGGNTGYADSVKGRFTISRDNAKNSLYLQMNSLRAEDTALYHCAVIMSPIPRYSGYDWAGGAFDIWGQGTMVTVSS
VL: SSELTQDPAVSVALGQTVRITCQGDSLRSYYASWYQQKPGQVPILVIYDKNNRPSGIPDRFSGSSSGNTASLTITGAQAEDEADYYCNSRDSSGNAVVFGGGTKLTVLG
Binder B6 has a bead assay binding signal [1] of 604 and a bead assay binding signal [2] of 435.

B7: antibody 896 (antibody, V domains shown)
VH: EVQLVESGGGVVQPGGSLRLSCAASGFTFDDYAMHWVRQVPGKGLEWVSLISGDGGSTYYADSVKGRFTISRDNSKNSLYVQMNSLRTEDTALYYCVKDRGGSGWDLNHYYYGMDVWGQGTTVTVSS
VL: DIQLTQSPSFLSASVGDRVTVTCRASQGISSYLAWYQQKPGKAPKLLIYAAYTLQSGVPSRFSGSGSETEFTLTISSLQPEDFATYYCQQVKSYPLTFGGGTKVEIKR
For B7, the bead assay binding signal [1] was 692 and the bead assay binding signal [2] was 946.
